Measurements taken from publication PMC10397247.
One block for each binder: values may come before it.

How the values were obtained:
Assay in all cases: two-hybrid library CCNG1;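 further: natural log of median RNA to DNA barcode read ratio; higher means stronger binding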
[1] = target: T1, P9A-bN
T1 chain: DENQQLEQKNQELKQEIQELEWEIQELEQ

[2] = target: T2, P8A-bN
T2 chain: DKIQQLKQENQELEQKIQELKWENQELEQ

[3] = target: T3, P7A-bN
T3 chain: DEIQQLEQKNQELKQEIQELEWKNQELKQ

[4] = target: T4, P9mSN
T4 chain: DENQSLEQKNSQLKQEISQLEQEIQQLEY

[5] = target: T5, 4H3638-bH
T5 chain: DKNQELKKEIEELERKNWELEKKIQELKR

[6] = target: T6, 4H570-bH
T6 chain: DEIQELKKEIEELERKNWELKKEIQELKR

[7] = target: T7, 4H3974-bH
T7 chain: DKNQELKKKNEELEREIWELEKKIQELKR

[8] = target: T8, 4H3129-bH
T8 chain: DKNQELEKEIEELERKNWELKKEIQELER

[9] = target: T9, 4H619-bH
T9 chain: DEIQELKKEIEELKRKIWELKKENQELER

[10] = target: T10, 4H3631-bH
T10 chain: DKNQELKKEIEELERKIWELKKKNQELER

[11] = target: T11, 4H850-bH
T11 chain: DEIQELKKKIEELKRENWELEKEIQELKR

[12] = target: T12, 4H3414-bH
T12 chain: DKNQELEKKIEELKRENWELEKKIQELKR

[13] = target: T13, 4H906-bH
T13 chain: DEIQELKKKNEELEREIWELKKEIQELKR

[14] = target: T14, 4H3172-bH
T14 chain: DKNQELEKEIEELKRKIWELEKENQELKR

[15] = target: T15, 4H584-bH
T15 chain: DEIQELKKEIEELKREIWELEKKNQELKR

[16] = target: T16, 4H3817-bH
T16 chain: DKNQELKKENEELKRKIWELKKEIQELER

[17] = target: T17, 4H470-bN
T17 chain: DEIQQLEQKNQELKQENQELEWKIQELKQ

[18] = target: T18, O3-bS
T18 chain: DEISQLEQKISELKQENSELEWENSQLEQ

[19] = target: T19, 4H932-bA
T19 chain: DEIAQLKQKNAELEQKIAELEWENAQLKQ

[20] = target: T20, 4H796-bA
T20 chain: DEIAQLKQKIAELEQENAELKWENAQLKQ

[21] = target: T21, 4H949-bA
T21 chain: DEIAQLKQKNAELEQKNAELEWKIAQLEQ

[22] = target: T22, 4H3782-bA
T22 chain: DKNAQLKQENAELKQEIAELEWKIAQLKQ

[23] = target: T23, 4H568-bA
T23 chain: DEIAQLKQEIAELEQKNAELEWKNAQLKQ

[24] = target: T24, 4H3606-bA
T24 chain: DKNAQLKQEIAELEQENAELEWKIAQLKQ

[25] = target: T25, 4H4001-bA
T25 chain: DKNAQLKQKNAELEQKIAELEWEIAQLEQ

[26] = target: T26, 4H607-bA
T26 chain: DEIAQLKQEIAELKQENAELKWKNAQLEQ

[27] = target: T27, 4H953-bA
T27 chain: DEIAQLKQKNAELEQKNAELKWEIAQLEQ

[28] = target: T28, 4H72-bA
T28 chain: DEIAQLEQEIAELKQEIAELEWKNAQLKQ

[29] = target: T29, 4H687-bA
T29 chain: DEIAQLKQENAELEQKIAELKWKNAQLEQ

[30] = target: T30, 4H883-bA
T30 chain: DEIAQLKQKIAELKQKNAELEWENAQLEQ

[31] = target: T31, 4H3189-bA
T31 chain: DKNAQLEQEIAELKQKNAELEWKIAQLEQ

[32] = target: T32, 4H331-bA
T32 chain: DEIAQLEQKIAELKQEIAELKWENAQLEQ

[33] = target: T33, 4H918-bA
T33 chain: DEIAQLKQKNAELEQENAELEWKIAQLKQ

[34] = target: T34, 4H462-bA
T34 chain: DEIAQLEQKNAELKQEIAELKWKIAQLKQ

[35] = target: T35, 4H370-bA
T35 chain: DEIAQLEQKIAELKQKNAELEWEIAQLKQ

[36] = target: T36, 4H3843-bA
T36 chain: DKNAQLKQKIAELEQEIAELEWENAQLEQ

[37] = target: T37, 4H2697-bA
T37 chain: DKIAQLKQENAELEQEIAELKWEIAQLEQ

[38] = target: T38, 4H967-bA
T38 chain: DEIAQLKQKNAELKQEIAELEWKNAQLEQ

[39] = target: T39, 4H3041-bH
T39 chain: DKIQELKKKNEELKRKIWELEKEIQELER

[40] = target: T40, 4H797-bA
T40 chain: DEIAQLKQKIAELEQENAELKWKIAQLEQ

[41] = target: T41, 4H2839-bN
T41 chain: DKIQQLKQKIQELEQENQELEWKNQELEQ

[42] = target: T42, 4H477-bN
T42 chain: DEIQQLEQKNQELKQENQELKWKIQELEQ

[43] = target: T43, 4H40-bN
T43 chain: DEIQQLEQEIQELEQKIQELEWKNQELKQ

[44] = target: T44, 4H3057-bN
T44 chain: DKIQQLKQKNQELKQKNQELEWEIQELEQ

[45] = target: T45, 4H2588-bN
T45 chain: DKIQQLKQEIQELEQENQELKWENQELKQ

[46] = target: T46, 4H319-bN
T46 chain: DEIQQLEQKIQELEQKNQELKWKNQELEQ

[47] = target: T47, 4H348-bN
T47 chain: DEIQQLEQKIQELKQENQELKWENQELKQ

[48] = target: T48, 4H492-bN
T48 chain: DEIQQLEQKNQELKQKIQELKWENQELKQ

[49] = target: T49, 4H3277-bN
T49 chain: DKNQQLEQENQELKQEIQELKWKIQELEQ

[50] = target: T50, 4H2692-bN
T50 chain: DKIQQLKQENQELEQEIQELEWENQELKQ

[51] = target: T51, 4H2915-bN
T51 chain: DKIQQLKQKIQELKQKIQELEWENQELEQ

[52] = target: T52, 4H2717-bN
T52 chain: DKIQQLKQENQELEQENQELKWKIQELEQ

[53] = target: T53, 4H741-bN
T53 chain: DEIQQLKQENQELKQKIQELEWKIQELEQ

[54] = target: T54, 4H2585-bH
T54 chain: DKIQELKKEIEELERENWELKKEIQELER

[55] = target: T55, 4H730-bH
T55 chain: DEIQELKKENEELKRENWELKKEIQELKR

[56] = target: T56, 4H932-bH
T56 chain: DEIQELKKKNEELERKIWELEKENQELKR

[57] = target: T57, 4H2859-bH
T57 chain: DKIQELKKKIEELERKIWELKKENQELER

[58] = target: T58, 4H2760-bH
T58 chain: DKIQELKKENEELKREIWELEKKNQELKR

[59] = target: T59, 4H349-bH
T59 chain: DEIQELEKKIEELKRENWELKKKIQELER

[60] = target: T60, 4H3364-bH
T60 chain: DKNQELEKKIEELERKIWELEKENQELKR

[61] = target: T61, 4H949-bH
T61 chain: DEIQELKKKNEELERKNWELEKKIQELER

[62] = target: T62, 4H2931-bH
T62 chain: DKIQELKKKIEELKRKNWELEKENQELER

[63] = target: T63, 4H4001-bH
T63 chain: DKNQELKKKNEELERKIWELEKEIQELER

[64] = target: T64, 4H264-bH
T64 chain: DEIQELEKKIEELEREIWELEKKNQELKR

[65] = target: T65, 4H3381-bH
T65 chain: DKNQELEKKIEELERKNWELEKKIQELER

[66] = target: T66, 4H796-bH
T66 chain: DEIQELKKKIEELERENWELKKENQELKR

[67] = target: T67, 4H3297-bH
T67 chain: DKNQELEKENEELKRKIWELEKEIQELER

[68] = target: T68, 4H56-bH
T68 chain: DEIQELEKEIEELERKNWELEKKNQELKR

interaction score [1]: 0.0031
interaction score [2]: -0.195
interaction score [3]: 0.204
interaction score [4]: -0.239
Binder: DKNQQLKQEIQELEQENQELEWKIQELKQ [P6A-bN]

interaction score [5]: -1.18
interaction score [6]: -1.61
interaction score [7]: -0.348
interaction score [8]: -2.16
interaction score [9]: -0.44
interaction score [10]: -0.645
interaction score [11]: 0.17
interaction score [12]: 1.62
interaction score [13]: -0.384
interaction score [14]: -0.227
interaction score [15]: -0.445
interaction score [16]: -0.197
Binder: DKNQELEKEIEELERKNWELKKEIQELER [4H3129-bH]

interaction score [17]: -0.484
Binder: DEIQQLEQKNQELKQENQELEWKIQELKQ [4H470-bN]

interaction score [18]: -0.947
interaction score [19]: -0.164
interaction score [20]: 0.961
interaction score [21]: -0.898
Binder: DEIAQLKQKIAELEQENAELKWENAQLKQ [4H796-bA]

interaction score [5]: -0.13
interaction score [6]: 0.871
interaction score [7]: 0.353
interaction score [9]: -1.22
interaction score [10]: 0.994
interaction score [11]: -0.531
interaction score [12]: 0.693
interaction score [13]: -0.821
interaction score [14]: 0.448
interaction score [15]: -1.68
interaction score [16]: -0.475
Binder: DKNQELEKEIEELKRKIWELEKENQELKR [4H3172-bH]

interaction score [22]: 0.993
interaction score [23]: -1.82
interaction score [24]: -1.7
interaction score [25]: -0.951
interaction score [26]: -1.17
interaction score [27]: -1.44
interaction score [28]: -1.03
interaction score [29]: -1.08
interaction score [30]: -1.53
interaction score [31]: -1.34
interaction score [32]: -1.52
interaction score [33]: -0.926
interaction score [34]: 2.04
interaction score [35]: -1.13
interaction score [36]: -0.367
interaction score [37]: -0.377
interaction score [38]: -0.359
interaction score [39]: 1.02
interaction score [40]: -0.734
Binder: DKIAQLKQENAELEQEIAELKWEIAQLEQ [4H2697-bA]

interaction score [1]: -1.19
interaction score [2]: 2.12
interaction score [3]: 0.344
Binder: DEIQQLEQKNQELKQEIQELEWKNQELKQ [P7A-bN]

interaction score [41]: -1.16
interaction score [42]: -1.95
interaction score [43]: -0.648
interaction score [44]: -1.34
interaction score [45]: 0.138
interaction score [46]: -0.863
interaction score [47]: 1.49
interaction score [48]: -0.343
interaction score [49]: -0.49
interaction score [50]: 0.0187
interaction score [51]: 0.795
interaction score [52]: 0.223
interaction score [53]: 0.0254
Binder: DKIQQLKQEIQELEQENQELKWENQELKQ [4H2588-bN]

interaction score [54]: -0.17
interaction score [55]: -0.529
interaction score [56]: -1.27
interaction score [42]: -0.435
interaction score [57]: 0.965
interaction score [58]: 0.55
interaction score [59]: 1.63
interaction score [60]: -0.536
interaction score [61]: -0.693
interaction score [62]: -0.336
interaction score [63]: -0.0821
interaction score [64]: -0.751
interaction score [39]: 0.00364
interaction score [65]: -0.48
interaction score [66]: -0.9
interaction score [67]: -0.417
interaction score [68]: 0.21
Binder: DKIQELKKEIEELERENWELKKEIQELER [4H2585-bH]
